B1: ZNF207 (parent)
chain: CHICHKKLYTGPGLAIHCMQVHKE
B2: NEK8 (parent)
chain: YTFGSNQHGQLGTNTRRGSRAPCK

Variants of: B1
Test: protein stability index of a GFP-peptide fusion (GPS, HEK-293T) (PSI 1-6); higher = more stable
Conditions: c terminus: a fixed tail appended
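Also: lentivirally expressed fusions sorted by FACS into six bins by GFP to DsRed ratio, PSI derived from sequencing read proportions per bin multiplied by bin number.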

Compared with CHICHKKLYTGPGLAIHCMGVHKE [Q20G], CHICHKKLYTGPGLWIHCMQVHKE [A15W] is lower in protein stability index: 3.13 for the first, 2.27 for the second.

Compared with CHICHKKLYTGPGLVIHCMQVHKE [A15V], CHICHKKLYTGPGLSIHCMQVHKE [A15S] is higher in protein stability index: 2.35 for the first, 3.42 for the second.

Compared with CHICHKKLYTGPGLNIHCMQVHKE [A15N], CHICHKKLYTGPGLRIHCMQVHKE [A15R] is lower in protein stability index: 3.7 for the first, 3.19 for the second.

Going from CHICHKKLYTGPGLTIHCMQVHKE [A15T] to CHICHKKLYTGPGLQIHCMQVHKE [A15Q], the protein stability index rises from 3.69 to 3.7.

Going from CHICHKKLYTGPGLYIHCMQVHKE [A15Y] to CHICHKKLYTGPGLPIHCMQVHKE [A15P], the protein stability index rises from 3.21 to 3.24.

Compared with CHICHKKLYTGPGLAIHCSQVHKE [M19S], CHICHKKLYTGPGLAIHCQQVHKE [M19Q] is lower in protein stability index: 4.03 for the first, 3.81 for the second.

Going from CHICHKKLYTGPGLAIHCKQVHKE [M19K] to CHICHKKLYTGPGLAIHCLQVHKE [M19L], the protein stability index falls from 3.93 to 2.52.

Going from CHICHKKLYTGPGLAIHCGQVHKE [M19G] to CHICHKKLYTGPGLAIHCPQVHKE [M19P], the protein stability index falls from 3.41 to 3.3.

First: CHICHKKLYTGPGLAIHCCQVHKE [M19C]
Second: CHICHKKLYTGPGLAIHCVQVHKE [M19V]
The protein stability index of the first is higher: 4.56 for the first, 2.94 for the second.

Compared with CHICHKKLYTGPGLAIHCWQVHKE [M19W], CHICHKKLYTGPGLAIHCIQVHKE [M19I] is higher in protein stability index: 2.48 for the first, 3.47 for the second.

Compared with CHICHKKLYTGPGLAIHCFQVHKE [M19F], CHICHKKLYTGPGLAIHCTQVHKE [M19T] is lower in protein stability index: 3.75 for the first, 3.73 for the second.

Compared with CHICHKKLYTGPGLAIHCEQVHKE [M19E], CHICHKKLYTGPGLAIHCDQVHKE [M19D] is lower in protein stability index: 4.47 for the first, 3.36 for the second.

First: CHICHKKLYTGPGLAIHCNQVHKE [M19N]
Second: CHICHKKLYTGPGLAIHCAQVHKE [M19A]
The protein stability index of the first is higher: 3.9 for the first, 3.57 for the second.

First: CHICHKKLYTGPGLAIHCYQVHKE [M19Y]
Second: CHICHKKLYTGPGLAIHCHQVHKE [M19H]
The protein stability index of the first is lower: 2.94 for the first, 4.12 for the second.

First: CHICHKKLYTGPGLAIHCRQVHKE [M19R]
Second: CHICHKKLYTGPGLAIHCMQTHKE [V21T]
The protein stability index of the first is lower: 3.41 for the first, 3.7 for the second.

Going from CHICHKKLYTGPGLAIHCMQYHKE [V21Y] to CHICHKKLYTGPGLAIHCMQPHKE [V21P], the protein stability index falls from 3.93 to 3.21.

Going from CHICHKKLYTGPGLAIHCMQWHKE [V21W] to CHICHKKLYTGPGLAIHCMQRHKE [V21R], the protein stability index falls from 2.89 to 2.84.

Going from CHICHKKLYTGPGLAIHCMQNHKE [V21N] to CHICHKKLYTGPGLAIHCMQKHKE [V21K], the protein stability index falls from 3.48 to 3.27.

First: CHICHKKLYTGPGLAIHCMQMHKE [V21M]
Second: CHICHKKLYTGPGLAIHCMQIHKE [V21I]
The protein stability index of the first is higher: 3.72 for the first, 2.49 for the second.

First: CHICHKKLYTGPGLAIHCMQEHKE [V21E]
Second: CHICHKKLYTGPGLAIHCMQFHKE [V21F]
The protein stability index of the first is higher: 3.6 for the first, 3.35 for the second.

Compared with CHICHKKLYTGPGLAIHCMQAHKE [V21A], CHICHKKLYTGPGLAIHCMQLHKE [V21L] is lower in protein stability index: 3.84 for the first, 3 for the second.

First: CHICHKKLYTGPGLAIHCMQGHKE [V21G]
Second: CHICHKKLYTGPGLAIHCMQHHKE [V21H]
The protein stability index of the first is higher: 3.96 for the first, 3.44 for the second.

First: CHICHKKLYTGPGLAIHCMQSHKE [V21S]
Second: CHICHKKLYTGPGLAIHCMQDHKE [V21D]
The protein stability index of the first is higher: 3.71 for the first, 3.5 for the second.

First: CHICHKKLYTGPGLAIHCMQCHKE [V21C]
Second: CHICHKKLYTGPGLAIHCMQQHKE [V21Q]
The protein stability index of the first is higher: 4.09 for the first, 2.89 for the second.

Compared with CHICHKKLYTGPGLACHCMQVHKE [I16C], CHICHKKLYTGPGLAAHCMQVHKE [I16A] is lower in protein stability index: 4.33 for the first, 3.54 for the second.

First: CHICHKKLYTGPGLAGHCMQVHKE [I16G]
Second: CHICHKKLYTGPGLAQHCMQVHKE [I16Q]
The protein stability index of the first is higher: 4.1 for the first, 3.9 for the second.

First: CHICHKKLYTGPGLARHCMQVHKE [I16R]
Second: CHICHKKLYTGPGLAHHCMQVHKE [I16H]
The protein stability index of the first is lower: 2.71 for the first, 4.39 for the second.

Going from CHICHKKLYTGPGLAEHCMQVHKE [I16E] to CHICHKKLYTGPGLAFHCMQVHKE [I16F], the protein stability index falls from 4.77 to 3.83.

Going from CHICHKKLYTGPGLAYHCMQVHKE [I16Y] to CHICHKKLYTGPGLAMHCMQVHKE [I16M], the protein stability index rises from 3.02 to 3.45.

First: CHICHKKLYTGPGLAVHCMQVHKE [I16V]
Second: CHICHKKLYTGPGLADHCMQVHKE [I16D]
The protein stability index of the first is lower: 3.81 for the first, 4.71 for the second.

First: CHICHKKLYTGPGLALHCMQVHKE [I16L]
Second: CHICHKKLYTGPGLATHCMQVHKE [I16T]
The protein stability index of the first is lower: 3.01 for the first, 3.82 for the second.

Going from CHICHKKLYTGPGLANHCMQVHKE [I16N] to CHICHKKLYTGPGLAPHCMQVHKE [I16P], the protein stability index rises from 3.71 to 3.97.

First: CHICHKKLYTGPGLAWHCMQVHKE [I16W]
Second: CHICHKKLYTGPGLAKHCMQVHKE [I16K]
The protein stability index of the first is lower: 3.16 for the first, 3.23 for the second.

Going from CHICHKKLYTGPGLASHCMQVHKE [I16S] to CHICHKKLYTGPGLAIHCMQVHKK [E24K], the protein stability index falls from 3.72 to 2.65.

Compared with CHICHKKLYTGPGLAIHCMQVHKW [E24W], CHICHKKLYTGPGLAIHCMQVHKR [E24R] is lower in protein stability index: 2.49 for the first, 2.34 for the second.

Compared with CHICHKKLYTGPGLAIHCMQVHKH [E24H], CHICHKKLYTGPGLAIHCMQVHKA [E24A] is higher in protein stability index: 2.18 for the first, 2.66 for the second.

First: CHICHKKLYTGPGLAIHCMQVHKY [E24Y]
Second: CHICHKKLYTGPGLAIHCMQVHKP [E24P]
The protein stability index of the first is higher: 2.74 for the first, 2.63 for the second.

Going from CHICHKKLYTGPGLAIHCMQVHKD [E24D] to CHICHKKLYTGPGLAIHCMQVHKM [E24M], the protein stability index falls from 2.84 to 2.11.

Compared with CHICHKKLYTGPGLAIHCMQVHKI [E24I], CHICHKKLYTGPGLAIHCMQVHKC [E24C] is lower in protein stability index: 3.47 for the first, 3.29 for the second.

Going from CHICHKKLYTGPGLAIHCMQVHKS [E24S] to CHICHKKLYTGPGLAIHCMQVHKN [E24N], the protein stability index falls from 3.17 to 2.44.

Going from CHICHKKLYTGPGLAIHCMQVHKF [E24F] to CHICHKKLYTGPGLAIHCMQVHKT [E24T], the protein stability index rises from 2.53 to 2.96.

Compared with CHICHKKLYTGPGLAIHCMQVHKV [E24V], CHICHKKLYTGPGLAIHCMQVHKL [E24L] is lower in protein stability index: 3.65 for the first, 2.6 for the second.

Going from CHICHKKLYTGPGLAIHCMQVHKQ [E24Q] to CHICHKKLYTGPGLAIHCMQVHKG [E24G], the protein stability index falls from 2.85 to 2.55.

Variants of: B2
Test: as above
Conditions: c terminus: a fixed tail appended

Compared with FTFGSNQHGQLGTNTRRGSRAPCK [Y1F], ETFGSNQHGQLGTNTRRGSRAPCK [Y1E] is higher in protein stability index: 3.66 for the first, 4.47 for the second.

First: GTFGSNQHGQLGTNTRRGSRAPCK [Y1G]
Second: ITFGSNQHGQLGTNTRRGSRAPCK [Y1I]
The protein stability index of the first is higher: 5.09 for the first, 4.34 for the second.

Going from ATFGSNQHGQLGTNTRRGSRAPCK [Y1A] to CTFGSNQHGQLGTNTRRGSRAPCK [Y1C], the protein stability index falls from 4.81 to 4.11.

Compared with HTFGSNQHGQLGTNTRRGSRAPCK [Y1H], DTFGSNQHGQLGTNTRRGSRAPCK [Y1D] is higher in protein stability index: 4.54 for the first, 4.96 for the second.

— the supplement of paper PMC10567573
